No end group written: not given here.
B2: BsGpsB_(1-68) (domain or fragment, B. subtilis, UniProt P0CI74 1-68, looked up)
chain: MLADKVKLSAKEILEKEFKTGVRGYKQEDVDKFLDMIIKDYETFHQEIEELQQENLQLKKQLEEASKK
notes: GpsB, Bacillus subtilis, residues 1-68; also called N-terminal domain of BsGpsB; source: E. coli, purified (Ni-NTA, thrombin, size exclusion)
B8: SpGpsB_(4-63) (domain or fragment, S. pneumoniae R6, UniProt Q8DR57 4-63, looked up)
chain: IIFSAKDIFEQEFGREVRGYNKVEVDEFLDDVIKDYETYAALVKSLRQEIADLKEELTRK
notes: GpsB, Streptococcus pneumoniae R6, residues 4-63; also called slightly truncated form of the N-terminal domain of SpGpsB; source: E. coli, purified (Ni-NTA, TEV, Superdex 75); not shown: His6, N-terminal, cleaved

Legend:
BsGpsB_(5-64) = target: T1, BsGpsB_(5-64) (B. subtilis 168, UniProt P0CI74 5-64); test: crystal structure; co-crystallisation of GpsB N-terminal domain with PBP peptide, 1:5 molar ratio protein:peptide, room temperature; details: both partners purified
T1 construct: GpsB, Bacillus subtilis 168, residues 5-64; two molecules in the asymmetric unit; also called N-terminal domain of BsGpsB, termini truncated; source: E. coli, purified (Ni-NTA, TEV, Superdex 75); not shown: His6, N-terminal, cleaved
T1 sequence (looked up): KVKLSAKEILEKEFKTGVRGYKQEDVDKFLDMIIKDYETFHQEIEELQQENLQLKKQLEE

[1] = target: T2, BsPBP1_(1-32)^Ala10Pro, TAMRA-labelled at position 16 (B. subtilis, UniProt P39793 1-32, Ser16Cys | Ala10Pro, TAMRA (maleimide) at position 16); test: fluorescence polarisation; GpsB protein titrated into fluorescently labelled peptide; 10 mM Tris.HCl pH 8.0, 250 mM NaCl, 0.1% reduced Triton X-100; fit to a 1:1 interaction model; details: both partners purified
T2 construct: PBP1, Bacillus subtilis, residues 1-32; source: E. coli, His-tagged MBP fusion purified (Ni-NTA), labelled, TEV-cleaved, ultrafiltration
T2 peptide (looked up): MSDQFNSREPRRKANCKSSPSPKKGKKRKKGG

[2] = target: T3, BsPBP1_(1-32)^Arg8Lys, TAMRA-labelled at position 16 (B. subtilis, UniProt P39793 1-32, Ser16Cys | Arg8Lys, TAMRA (maleimide) at position 16); test: as above; details: both partners purified
T3 construct: PBP1, Bacillus subtilis, residues 1-32; also called BsPBP1^Arg8Lys; source: E. coli, His-tagged MBP fusion purified (Ni-NTA), labelled, TEV-cleaved, ultrafiltration
T3 peptide (looked up): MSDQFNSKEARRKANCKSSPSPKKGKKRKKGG

[3] = target: T4, BsPBP1_(1-32)^Ser7Ala, TAMRA-labelled at position 16 (B. subtilis, UniProt P39793 1-32, Ser16Cys | Ser7Ala, TAMRA (maleimide) at position 16); test: as above; details: both partners purified
T4 construct: PBP1, Bacillus subtilis, residues 1-32; source: E. coli, His-tagged MBP fusion purified (Ni-NTA), labelled, TEV-cleaved, ultrafiltration
T4 peptide (looked up): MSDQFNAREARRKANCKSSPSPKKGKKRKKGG

[4] = target: T5, BsPBP1_(1-32)^Arg8Ala, TAMRA-labelled at position 16 (B. subtilis, UniProt P39793 1-32, Ser16Cys | Arg8Ala, TAMRA (maleimide) at position 16); test: as above; details: both partners purified
T5 construct: PBP1, Bacillus subtilis, residues 1-32; also called BsPBP1^Arg8Ala; source: E. coli, His-tagged MBP fusion purified (Ni-NTA), labelled, TEV-cleaved, ultrafiltration
T5 peptide (looked up): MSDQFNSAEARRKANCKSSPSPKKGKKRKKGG

[5] = target: T6, BsPBP1_(1-32)^Arg11Ala, TAMRA-labelled at position 16 (B. subtilis, UniProt P39793 1-32, Ser16Cys | Arg11Ala, TAMRA (maleimide) at position 16); test: as above; details: both partners purified
T6 construct: PBP1, Bacillus subtilis, residues 1-32; also called BsPBP1^Arg11Ala; source: E. coli, His-tagged MBP fusion purified (Ni-NTA), labelled, TEV-cleaved, ultrafiltration
T6 peptide (looked up): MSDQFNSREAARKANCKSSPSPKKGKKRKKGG

BsGpsB_(1-68) [6] = target: B2; test: as above; details: both partners purified
[7] = target: T7, full-length BsGpsB (Bacillus subtilis GpsB) (B. subtilis, UniProt P0CI74 1-98); test: as above; details: both partners purified
T7 construct: GpsB, Bacillus subtilis; purification of the full-length protein is not described here; source: E. coli BL21(DE3) used for recombinant protein production)
T7 sequence (looked up): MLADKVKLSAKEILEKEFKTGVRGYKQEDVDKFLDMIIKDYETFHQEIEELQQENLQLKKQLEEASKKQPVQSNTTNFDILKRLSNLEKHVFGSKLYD

BsGpsB_(1-68) [8] = target: B2; test: fluorescence polarisation; details: both partners purified
[9] = target: T8, SpPBP2a_(23-45)^Arg31Lys, TAMRA-labelled (S. pneumoniae R6, UniProt Q8DNB6 23-45, Gly43 to cysteine | Arg31Lys, TAMRA (maleimide) label); test: fluorescence polarisation; details: both partners purified
T8 construct: also called SpPBP2a^Arg31Lys; source: E. coli, His-tagged MBP fusion purified (Ni-NTA), labelled, TEV-cleaved, ultrafiltration
T8 peptide: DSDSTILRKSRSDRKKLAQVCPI

[10] = target: T9, SpPBP2a_(23-45)^Arg31Lys,Arg33Lys, TAMRA-labelled (S. pneumoniae R6, UniProt Q8DNB6 23-45, Gly43 to cysteine | Arg31Lys | Arg33Lys, TAMRA (maleimide) label); test: fluorescence polarisation; details: both partners purified
T9 construct: also called SpPBP2a^Arg31Lys,Arg33Lys; source: E. coli, His-tagged MBP fusion purified (Ni-NTA), labelled, TEV-cleaved, ultrafiltration
T9 peptide: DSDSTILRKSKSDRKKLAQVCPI

[11] = target: Fluorescein-SpPBP2b1-17 (S. pneumoniae R6); test: fluorescence polarisation; GpsB protein titrated into TAMRA- or fluorescein-labelled peptide; 10 mM Tris.HCl pH 8.0, 250 mM NaCl, 0.1% reduced Triton X-100; all data fitted to a 1:1 interaction model, Kd ± standard error
[12] = target: T10, SpPBP2a_(23-45), TAMRA-labelled (S. pneumoniae R6, UniProt Q8DNB6 23-45, Gly43 to cysteine, TAMRA (maleimide) label); test: fluorescence polarisation; details: both partners purified
T10 construct: source: E. coli, His-tagged MBP fusion purified (Ni-NTA), labelled, TEV-cleaved, ultrafiltration
T10 peptide: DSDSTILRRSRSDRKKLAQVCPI

SpGpsB_(4-63) = target: B8; test: crystal structure; co-crystallisation of GpsB N-terminal domain with PBP peptide, 1:5 molar ratio protein:peptide, room temperature; details: both partners purified
[13] = target: the molecule itself; test: as above
[14] = target: T11, full-length BsPBP1 (Bacillus subtilis PBP1) (B. subtilis, UniProt P39793 1-914); test: SPR; details: both partners purified
T11 construct: also called wild-type BsPBP1; source: E. coli, purified from membrane pellets (His select resin, thrombin, Superdex S200)
T11 sequence (looked up): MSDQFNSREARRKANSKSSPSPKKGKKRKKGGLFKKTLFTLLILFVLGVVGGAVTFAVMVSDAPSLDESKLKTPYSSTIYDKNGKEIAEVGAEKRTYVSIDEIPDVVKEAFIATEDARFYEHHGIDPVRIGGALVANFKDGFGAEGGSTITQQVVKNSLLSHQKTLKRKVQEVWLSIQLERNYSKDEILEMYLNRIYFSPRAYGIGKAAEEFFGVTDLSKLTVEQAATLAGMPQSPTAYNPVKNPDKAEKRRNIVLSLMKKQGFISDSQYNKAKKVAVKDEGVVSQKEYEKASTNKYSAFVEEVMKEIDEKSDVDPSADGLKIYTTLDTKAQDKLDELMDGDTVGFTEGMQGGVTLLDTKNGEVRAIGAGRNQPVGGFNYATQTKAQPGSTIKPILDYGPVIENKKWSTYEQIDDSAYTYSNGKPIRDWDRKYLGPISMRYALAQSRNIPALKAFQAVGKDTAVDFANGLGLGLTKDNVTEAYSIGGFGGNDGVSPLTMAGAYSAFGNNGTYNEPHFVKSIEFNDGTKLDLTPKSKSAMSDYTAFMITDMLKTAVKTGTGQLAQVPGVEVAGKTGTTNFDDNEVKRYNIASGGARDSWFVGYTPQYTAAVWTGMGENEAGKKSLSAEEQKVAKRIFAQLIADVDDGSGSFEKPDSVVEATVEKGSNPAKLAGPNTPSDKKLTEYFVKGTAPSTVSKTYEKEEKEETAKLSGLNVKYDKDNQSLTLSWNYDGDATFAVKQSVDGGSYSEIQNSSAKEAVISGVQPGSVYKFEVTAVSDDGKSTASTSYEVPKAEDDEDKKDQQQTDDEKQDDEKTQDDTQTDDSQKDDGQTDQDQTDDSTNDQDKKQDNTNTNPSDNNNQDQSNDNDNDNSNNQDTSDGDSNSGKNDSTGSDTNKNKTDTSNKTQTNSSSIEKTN

B1: BsPBP1_(1-17) (peptide, UniProt P39793 1-17, looked up)
peptide: MSDQFNSREARRKANSK
notes: PBP1, Bacillus subtilis, residues 1-17; also called first 17 amino acids of BsPBP1; source: synthetic peptide
B1: binds (BsGpsB_(5-64)).

For B2, the “fold reduction in affinity against wild type” value (from here on “fold reduction in affinity”) [1] was ≥ 6 fold, the “fold reduction in affinity” value [2] was ≥ 5 fold and the “fold reduction in affinity” value [3] was ≥ 6 fold. For the same binder, the “fold reduction in affinity” value [4] was ≥ 5 fold and the “fold reduction in affinity” value [5] was ≥ 5 fold.

B3: BsPBP1_(1-32), TAMRA-labelled at position 16 (peptide, UniProt P39793 1-32, looked up)
peptide: MSDQFNSREARRKANC(TAMRA (maleimide))KSSPSPKKGKKRKKGG
notes: PBP1, Bacillus subtilis, residues 1-32; also called BsPBPA1_(1-32); BsPBP1A_(1-32); source: E. coli, His-tagged MBP fusion purified (Ni-NTA), labelled, TEV-cleaved, ultrafiltration
B3: binds (BsGpsB_(1-68) [6]); binds [7].

B4: BsYpbE_(1-21), fluorescein-labelled (peptide)
peptide: MTNMSRVERRKAQNLYEDQNA
modifications: also: fluorescein label, position not given here
notes: also called 21-residue fragment of the cytoplasmic domain of BsYpbE; source: synthetic peptide
B4 was tested, and the Kd (BsGpsB_(1-68) [8]) was 13 µM.

B5: SpGpsB_(1-63) (domain or fragment)
chain: MASIIFSAKDIFEQEFGREVRGYNKVEVDEFLDDVIKDYETYAALVKSLRQEIADLKEELTRK
notes: GpsB, Streptococcus pneumoniae R6, residues 1-63 (stop codon in place of Pro64); also called N-terminal domain of SpGpsB; wildtype SpGpsB_(1-63); source: E. coli, purified (Ni-NTA, thrombin, ammonium sulphate precipitation, gel filtration)
With B5 the “fold reduction in affinity” value [9] was 2 fold, the “fold reduction in affinity” value [10] was > 25 fold and the Kd [11] was > 3600 µM.

B6: SpGpsB_(1-63)^Asp33Ala (domain or fragment)
chain: MASIIFSAKDIFEQEFGREVRGYNKVEVDEFLADVIKDYETYAALVKSLRQEIADLKEELTRK
notes: also called SpGpsB^Asp33Ala; source: E. coli, purified (Ni-NTA, thrombin, ammonium sulphate precipitation, gel filtration)
In the case of B6, the “fold reduction in affinity” value [12] is reported as ~40 fold.

B7: SpPBP2a_(27-40) (peptide, UniProt Q8DNB6 27-40, looked up)
peptide: TILRRSRSDRKKLA
notes: PBP2a, Streptococcus pneumoniae, residues 27-40; also called 14-residue peptide of SpPBP2a; source: synthetic peptide
B7: binds (SpGpsB_(4-63)).

B8: binds [13].

B9: BsYrrS_(Δ13-16) (natural protein)
chain: MSNNQSRYENRDANLVLNILIAIVSILIVVVAANLFINSPSSKDVSKDSETAQKQESPASGKTEKKSDEDIKDSKKDTSDSEKDSEKSSDSDSKKDDSSSKKDDSDSDSSSDSAGDGLKDAKVTEGGSSSDVEKTYENPDWKAVGTEQTGEHAATYDSSSQDWAEMLKAISYATGVSTDNMTVLWLGNNGSPQDAKGKILDKATGNKYQVTITWVDEKGWKPTKVEKLK
notes: source: E. coli BL21(DE3), purified from membranes (Ni-NTA, Superdex 200)
For B9, the Kd [14] was 0.02 µM.

From article PMC6335420, “The cell cycle regulator GpsB functions as cytosolic adaptor for multiple cell wall enzymes” (Nature Communications, 2019)
